Here are results for 5 molecules from patent EP4782541A1 (Nanjing Probio Biotech Co., Ltd., dated 2026).

This test has as its target T1, human CD3 (on Jurkat cells) (human, UniProt P07766 23-207; P09693 23-182; P04234 22-171).
T1 construct: whole, on cells
As to the kind of experiment: flow cytometry on Jurkat cells expressing human CD3.

T1 sequence (P07766 23-207, chain 1 of 3): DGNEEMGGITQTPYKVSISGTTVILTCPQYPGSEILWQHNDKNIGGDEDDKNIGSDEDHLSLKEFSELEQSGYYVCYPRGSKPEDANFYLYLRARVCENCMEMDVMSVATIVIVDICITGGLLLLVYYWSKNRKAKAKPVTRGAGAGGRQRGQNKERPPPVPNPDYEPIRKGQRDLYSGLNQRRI
T1 sequence (P09693 23-182, chain 2 of 3): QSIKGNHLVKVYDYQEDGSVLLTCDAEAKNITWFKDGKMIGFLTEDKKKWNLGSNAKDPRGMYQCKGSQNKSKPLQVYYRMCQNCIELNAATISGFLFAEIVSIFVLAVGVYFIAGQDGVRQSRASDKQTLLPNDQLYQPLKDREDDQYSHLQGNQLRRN
T1 sequence (P04234 22-171, chain 3 of 3): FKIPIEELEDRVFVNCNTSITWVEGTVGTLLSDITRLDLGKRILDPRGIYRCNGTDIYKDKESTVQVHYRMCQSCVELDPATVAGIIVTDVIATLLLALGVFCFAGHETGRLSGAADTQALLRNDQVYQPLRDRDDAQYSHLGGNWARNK

B1: BsAb-17 (bispecific antibody, human IgG1, lambda)
chain: EVQLVESGGGLVQPGGSLRLSCAASGRSFSSFQMGWFRQAPGKEREFVAASGWSGGPTYYWDSVIGRFTISTDNSKNTLYLQMNSLRAEDTAVYYCYEDRVLSGRHVRYWGQGTLVTVSSDKTHTCPPCPAPESTRGPSVFLFPPKPKDTLMISRTPEVTCVVVDVSHEDPEVKFNWYVDGVEVHNAKTKPREEQYNSTYRVVSVLTVLHQDWLNGKEYKCKVSNKALPAPIEKTISKAKGQPREPQVCTLPPSRDELTKNQVSLSCAVKGFYPSDIAVEWESNGQPENNYKTTPPVLDSDGSFFLVSKLTVDKSRWQQGNVFSCSVMHEALHNHYTQKSLSLSPGK
heavy: EVQLVESGGGLVQPGGSLRLSCAASGRSFSSFQMGWFRQAPGKEREFVAASGWSGGPTYYWDSVIGRFTISTDNSKNTLYLQMNSLRAEDTAVYYCYEDRVLSGRHVRYWGQGTLVTVSSGGGGSGGGGSGGGGSEVQLVESGGGLVQPGRSLRLSCAASGFTFNTYAMNWVRQAPGKGLEWVARIRSKYNNYATYYADSVKDRFTISRDDSKSIAYLQMNSLKTEDTAVYYCVRHGNFGNSYVSWFAYWGQGTLVTVSSASTKGPSVFPLAPSSKSTSGGTAALGCLVKDYFPEPVTVSWNSGALTSGVHTFPAVLQSSGLYSLSSVVTVPSSSLGTQTYICNVNHKPSNTKVDKKVEPKSCDKTHTCPPCPAPESTRGPSVFLFPPKPKDTLMISRTPEVTCVVVDVSHEDPEVKFNWYVDGVEVHNAKTKPREEQYNSTYRVVSVLTVLHQDWLNGKEYKCKVSNKALPAPIEKTISKAKGQPREPQVYTLPPCRDELTKNQVSLWCLVKGFYPSDIAVEWESNGQPENNYKTTPPVLDSDGSFFLYSKLTVDKSRWQQGNVFSCSVMHEALHNHYTQKSLSLSPGK
light: QTVVTQEPSLTVSPGGTVTLTCRSSTGAVTTSNYANWVQQKPGQAPRGLIGGTNKRAPGVPARFSGSLLGGKAALTLSGVQPEDEAEYFCALWYSNLWVFGGGTKLTVLGQPKAAPSVTLFPPSSEELQANKATLVCLISDFYPGAVTVAWKADSSPVKAGVETTTPSKQSNNKYAASSYLSLTPEQWKSHRSYSCQVTHEGSTVEKTVAPTECS
Consider B1, for which the concentration giving a half-maximal response (EC50) – broadly, the concentration needed to bring the measured effect to its halfway point – came out at 4.02 nM.

B2: BsAb-3 (bispecific antibody, human IgG1, lambda)
chain: QVQLVESGGGVVQPGGSLRLSCAASGFVLRVNTVSWYRQAPGKQRELVALITSESNEYYDDSVKGRFTISRDNAKNTIYLHMNSLKPEDTGVYFCNFITTWGQGTQVTVSSDKTHTCPPCPAPESTRGPSVFLFPPKPKDTLMISRTPEVTCVVVDVSHEDPEVKFNWYVDGVEVHNAKTKPREEQYNSTYRVVSVLTVLHQDWLNGKEYKCKVSNKALPAPIEKTISKAKGQPREPQVCTLPPSRDELTKNQVSLSCAVKGFYPSDIAVEWESNGQPENNYKTTPPVLDSDGSFFLVSKLTVDKSRWQQGNVFSCSVMHEALHNHYTQKSLSLSPGK
heavy: EVQLVESGGGLVQPGRSLRLSCAASGFTFNTYAMNWVRQAPGKGLEWVARIRSKYNNYATYYADSVKDRFTISRDDSKSIAYLQMNSLKTEDTAVYYCVRHGNFGNSYVSWFAYWGQGTLVTVSSASTKGPSVFPLAPSSKSTSGGTAALGCLVKDYFPEPVTVSWNSGALTSGVHTFPAVLQSSGLYSLSSVVTVPSSSLGTQTYICNVNHKPSNTKVDKKVEPKSCDKTHTCPPCPAPESTRGPSVFLFPPKPKDTLMISRTPEVTCVVVDVSHEDPEVKFNWYVDGVEVHNAKTKPREEQYNSTYRVVSVLTVLHQDWLNGKEYKCKVSNKALPAPIEKTISKAKGQPREPQVYTLPPCRDELTKNQVSLWCLVKGFYPSDIAVEWESNGQPENNYKTTPPVLDSDGSFFLYSKLTVDKSRWQQGNVFSCSVMHEALHNHYTQKSLSLSPGK
light: QTVVTQEPSLTVSPGGTVTLTCRSSTGAVTTSNYANWVQQKPGQAPRGLIGGTNKRAPGVPARFSGSLLGGKAALTLSGVQPEDEAEYFCALWYSNLWVFGGGTKLTVLGQPKAAPSVTLFPPSSEELQANKATLVCLISDFYPGAVTVAWKADSSPVKAGVETTTPSKQSNNKYAASSYLSLTPEQWKSHRSYSCQVTHEGSTVEKTVAPTECS
notes: also called BsAb-03
B2 registered an EC50 of 6.66 nM.

B3: BsAb-16 (bispecific antibody, human IgG1, lambda)
chain: EVQLVESGGGLVQPGGSLRLSCAASGRSFSSFQMGWFRQAPGKEREFVAASGWSGGPTYYWDSVIGRFTISTDNSKNTLYLQMNSLRAEDTAVYYCYEDRVLSGRHVRYWGQGTLVTVSSGGGGSGGGGSGGGGSEVQLVESGGGLVQPGGSLRLSCAASGRSFSSFQMGWFRQAPGKEREFVAASGWSGGPTYYWDSVIGRFTISTDNSKNTLYLQMNSLRAEDTAVYYCYEDRVLSGRHVRYWGQGTLVTVSSDKTHTCPPCPAPESTRGPSVFLFPPKPKDTLMISRTPEVTCVVVDVSHEDPEVKFNWYVDGVEVHNAKTKPREEQYNSTYRVVSVLTVLHQDWLNGKEYKCKVSNKALPAPIEKTISKAKGQPREPQVCTLPPSRDELTKNQVSLSCAVKGFYPSDIAVEWESNGQPENNYKTTPPVLDSDGSFFLVSKLTVDKSRWQQGNVFSCSVMHEALHNHYTQKSLSLSPGK
heavy: EVQLVESGGGLVQPGRSLRLSCAASGFTFNTYAMNWVRQAPGKGLEWVARIRSKYNNYATYYADSVKDRFTISRDDSKSIAYLQMNSLKTEDTAVYYCVRHGNFGNSYVSWFAYWGQGTLVTVSSASTKGPSVFPLAPSSKSTSGGTAALGCLVKDYFPEPVTVSWNSGALTSGVHTFPAVLQSSGLYSLSSVVTVPSSSLGTQTYICNVNHKPSNTKVDKKVEPKSCDKTHTCPPCPAPESTRGPSVFLFPPKPKDTLMISRTPEVTCVVVDVSHEDPEVKFNWYVDGVEVHNAKTKPREEQYNSTYRVVSVLTVLHQDWLNGKEYKCKVSNKALPAPIEKTISKAKGQPREPQVYTLPPCRDELTKNQVSLWCLVKGFYPSDIAVEWESNGQPENNYKTTPPVLDSDGSFFLYSKLTVDKSRWQQGNVFSCSVMHEALHNHYTQKSLSLSPGK
light: QTVVTQEPSLTVSPGGTVTLTCRSSTGAVTTSNYANWVQQKPGQAPRGLIGGTNKRAPGVPARFSGSLLGGKAALTLSGVQPEDEAEYFCALWYSNLWVFGGGTKLTVLGQPKAAPSVTLFPPSSEELQANKATLVCLISDFYPGAVTVAWKADSSPVKAGVETTTPSKQSNNKYAASSYLSLTPEQWKSHRSYSCQVTHEGSTVEKTVAPTECS
B3: it took 0.469 nM to reach a half-maximal effect (EC50).

B4: BsAb-10 (bispecific antibody, human IgG1, lambda)
chain: EVQLVESGGGLVQPGGSLRLSCAASYFISRFYAVGWYRQAPGKQRELVARISSGGWTYYADSVKGRFTISIDNSKNTLYLQMNSLRAEDTAVYYCNARNLWGQGTLVTVSSDKTHTCPPCPAPESTRGPSVFLFPPKPKDTLMISRTPEVTCVVVDVSHEDPEVKFNWYVDGVEVHNAKTKPREEQYNSTYRVVSVLTVLHQDWLNGKEYKCKVSNKALPAPIEKTISKAKGQPREPQVCTLPPSRDELTKNQVSLSCAVKGFYPSDIAVEWESNGQPENNYKTTPPVLDSDGSFFLVSKLTVDKSRWQQGNVFSCSVMHEALHNHYTQKSLSLSPGK
heavy: EVQLVESGGGLVQPGGSLRLSCAASYFISRFYAVGWYRQAPGKQRELVARISSGGWTYYADSVKGRFTISIDNSKNTLYLQMNSLRAEDTAVYYCNARNLWGQGTLVTVSSGGGGSGGGGSGGGGSEVQLVESGGGLVQPGRSLRLSCAASGFTFNTYAMNWVRQAPGKGLEWVARIRSKYNNYATYYADSVKDRFTISRDDSKSIAYLQMNSLKTEDTAVYYCVRHGNFGNSYVSWFAYWGQGTLVTVSSASTKGPSVFPLAPSSKSTSGGTAALGCLVKDYFPEPVTVSWNSGALTSGVHTFPAVLQSSGLYSLSSVVTVPSSSLGTQTYICNVNHKPSNTKVDKKVEPKSCDKTHTCPPCPAPESTRGPSVFLFPPKPKDTLMISRTPEVTCVVVDVSHEDPEVKFNWYVDGVEVHNAKTKPREEQYNSTYRVVSVLTVLHQDWLNGKEYKCKVSNKALPAPIEKTISKAKGQPREPQVYTLPPCRDELTKNQVSLWCLVKGFYPSDIAVEWESNGQPENNYKTTPPVLDSDGSFFLYSKLTVDKSRWQQGNVFSCSVMHEALHNHYTQKSLSLSPGK
light: QTVVTQEPSLTVSPGGTVTLTCRSSTGAVTTSNYANWVQQKPGQAPRGLIGGTNKRAPGVPARFSGSLLGGKAALTLSGVQPEDEAEYFCALWYSNLWVFGGGTKLTVLGQPKAAPSVTLFPPSSEELQANKATLVCLISDFYPGAVTVAWKADSSPVKAGVETTTPSKQSNNKYAASSYLSLTPEQWKSHRSYSCQVTHEGSTVEKTVAPTECS
B4 displayed an EC50 of 2.84 nM.

B5: BsAb-2 (bispecific antibody, human IgG1, lambda)
chain: EVQLVESGGGLVQPGGSLRLSCAASYFISRFYAVGWYRQAPGKQRELVARISSGGWTYYADSVKGRFTISIDNSKNTLYLQMNSLRAEDTAVYYCNARNLWGQGTLVTVSSDKTHTCPPCPAPESTRGPSVFLFPPKPKDTLMISRTPEVTCVVVDVSHEDPEVKFNWYVDGVEVHNAKTKPREEQYNSTYRVVSVLTVLHQDWLNGKEYKCKVSNKALPAPIEKTISKAKGQPREPQVCTLPPSRDELTKNQVSLSCAVKGFYPSDIAVEWESNGQPENNYKTTPPVLDSDGSFFLVSKLTVDKSRWQQGNVFSCSVMHEALHNHYTQKSLSLSPGK
heavy: EVQLVESGGGLVQPGRSLRLSCAASGFTFNTYAMNWVRQAPGKGLEWVARIRSKYNNYATYYADSVKDRFTISRDDSKSIAYLQMNSLKTEDTAVYYCVRHGNFGNSYVSWFAYWGQGTLVTVSSASTKGPSVFPLAPSSKSTSGGTAALGCLVKDYFPEPVTVSWNSGALTSGVHTFPAVLQSSGLYSLSSVVTVPSSSLGTQTYICNVNHKPSNTKVDKKVEPKSCDKTHTCPPCPAPESTRGPSVFLFPPKPKDTLMISRTPEVTCVVVDVSHEDPEVKFNWYVDGVEVHNAKTKPREEQYNSTYRVVSVLTVLHQDWLNGKEYKCKVSNKALPAPIEKTISKAKGQPREPQVYTLPPCRDELTKNQVSLWCLVKGFYPSDIAVEWESNGQPENNYKTTPPVLDSDGSFFLYSKLTVDKSRWQQGNVFSCSVMHEALHNHYTQKSLSLSPGK
light: QTVVTQEPSLTVSPGGTVTLTCRSSTGAVTTSNYANWVQQKPGQAPRGLIGGTNKRAPGVPARFSGSLLGGKAALTLSGVQPEDEAEYFCALWYSNLWVFGGGTKLTVLGQPKAAPSVTLFPPSSEELQANKATLVCLISDFYPGAVTVAWKADSSPVKAGVETTTPSKQSNNKYAASSYLSLTPEQWKSHRSYSCQVTHEGSTVEKTVAPTECS
notes: also called BsAb-02
B5 had an EC50 of 0.329 nM.
